# Values joined by “and” are separate entries in the source; they are usually repeats but may differ in a detail not shown here. Equal entries are not always repeated.
# Columns and labels:
# [1] = target: complement factor H, homozygous Tyr-402, homozygous or heterozygous at I62V (human) (UniProt P08603); experiment: AUC; sedimentation velocity, 20 °C, 50,000 and 60,000 rpm, HEPES buffer (10 mM HEPES, 137 mM NaCl, pH 7.4), five samples of each allotype at 0.5, 1.1 and 2.1 mg/ml; c(s) peak integration; dimer and trimer percentages at 1.1 mg/ml
# [2] = target: complement factor H, homozygous Tyr-402, homozygous or heterozygous at I62V (human) (UniProt P08603); experiment: SAXS; concentration dependence of Guinier I(0)/c at 0.4-3.3 mg/ml in HEPES buffer, two samples of each allotype; KD estimated assuming a monomer-dimer equilibrium (dimer to monomers)
# [3] = target: complement factor H, double homozygous His-402/Val-62 allotype (human) (UniProt P08603); experiment: native MS; Q-ToF nanoflow, FH at about 4 mg/ml (3.9 mg/ml, 25.3 μM) in 140 mM ammonium acetate, pH 7.0; peak integration
# [4] = target: complement factor H, double homozygous His-402/Val-62 allotype (human) (UniProt P08603); experiment: native MS; Q-ToF nanoflow, FH at about 4 mg/ml (4.4 or 3.6 mg/ml) in 1 M ammonium acetate, pH 7.0; peak integration
# [5] = target: complement factor H, double homozygous His-402/Val-62 allotype (human) (UniProt P08603); experiment: AUC; sedimentation velocity, 20 °C, 50,000 and 60,000 rpm, HEPES buffer (10 mM HEPES, 137 mM NaCl, pH 7.4), five samples of each allotype at 0.5, 1.1 and 2.1 mg/ml; c(s) peak integration; dimer and trimer percentages at 1.1 mg/ml
# [6] = target: complement factor H, double homozygous His-402/Val-62 allotype (human) (UniProt P08603); experiment: SPR; Biacore X100, 800 RU of full-length FH amine-coupled to a CM3 chip, FH allotypes flowed at 1.3-12.3 μM, 25 °C, HEPES buffer; estimated KD from steady-state 1:1 affinity fit of maximum responses; sensorgrams did not fit a 1:1 kinetic model
# [7] = target: complement factor H, double homozygous His-402/Val-62 allotype (human) (UniProt P08603); experiment: SAXS; concentration dependence of Guinier I(0)/c at 0.4-3.3 mg/ml in HEPES buffer, two samples of each allotype; KD estimated assuming a monomer-dimer equilibrium (dimer to monomers)
# [8] = target: recombinant FH SCR-6/8 His-402 (human); experiment: SPR; Biacore X100, 150 RU (His-402 also 400 RU) of SCR-6/8 amine-coupled to a CM4 chip, SCR-6/8 allotypes flowed at 5-40 μM, 25 °C, HEPES buffer with 0.3 mg/ml nonspecific binding reducer; steady-state fits
# [9] = target: recombinant FH SCR-6/8 Tyr-402 (human); experiment: as above
# [10] = target: complement factor H, homozygous Tyr-402/Val-62 allotype (human) (UniProt P08603); experiment: native MS; Q-ToF nanoflow, FH at about 4 mg/ml (3.9 mg/ml, 25.3 μM) in 140 mM ammonium acetate, pH 7.0; peak integration
# [11] = target: complement factor H, homozygous Tyr-402/Val-62 allotype (human) (UniProt P08603); experiment: native MS; Q-ToF nanoflow, FH at about 4 mg/ml (4.4 or 3.6 mg/ml) in 1 M ammonium acetate, pH 7.0; peak integration
# [12] = target: complement factor H, homozygous Tyr-402/Val-62 allotype (human) (UniProt P08603); experiment: SPR; Biacore X100, 800 RU of full-length FH amine-coupled to a CM3 chip, FH allotypes flowed at 1.3-12.3 μM, 25 °C, HEPES buffer; estimated KD from steady-state 1:1 affinity fit of maximum responses; sensorgrams did not fit a 1:1 kinetic model
substance,measurement,setting,value
"complement factor H, homozygous Tyr-402, homozygous or heterozygous at I62V (from UniProt P08603 19-1231) (natural protein)",percent dimer,[1],4%
same,percent oligomers (peaks 2-9),[1],11.7%
same,percent trimer,[1],2.1%
same,stoichiometry N,[1],< 9
same,Kd,[2],16 µM and 18 µM
"complement factor H, double homozygous His-402/Val-62 allotype (from UniProt P08603 19-1231) (natural protein)",percent dimer,[3],17%
same,percent trimer,[3],6%
same,stoichiometry N,[3],< 3
same,percent dimer,[4],2%
same,stoichiometry N,[4],2
same,percent dimer,[5],5.7%
same,percent oligomers (peaks 2-9),[5],12.8%
same,percent trimer,[5],2.5%
same,stoichiometry N,[5],< 9
same,Kd,[6],6.7 µM
same,Kd,[7],11 µM and 22 µM
recombinant FH SCR-6/8 His-402 (domain or fragment),Kd,[8],> 40 µM
same,Kd,[9],> 40 µM
recombinant FH SCR-6/8 Tyr-402 (domain or fragment),Kd,[8],> 40 µM
same,Kd,[9],> 40 µM
"complement factor H, homozygous Tyr-402/Val-62 allotype (from UniProt P08603 19-1231) (natural protein)",percent dimer,[10],24%
same,percent trimer,[10],4%
same,stoichiometry N,[10],< 3
same,percent dimer,[11],10%
same,stoichiometry N,[11],2
same,Kd,[12],8 µM
